The target of experiment [1] is T1, FcγRIIb (extracellular domain, C-terminal His tag) (human, UniProt P31994 43-217).
T1 construct: extracellular domain; also called FcgRIIb; 2b; not shown: His tag attached to the C terminus
T1 sequence (looked up): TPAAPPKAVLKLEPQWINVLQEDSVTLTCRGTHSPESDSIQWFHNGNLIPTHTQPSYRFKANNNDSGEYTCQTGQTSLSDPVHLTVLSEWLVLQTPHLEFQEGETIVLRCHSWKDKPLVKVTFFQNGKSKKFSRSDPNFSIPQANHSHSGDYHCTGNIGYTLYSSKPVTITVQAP
The experiment in a line: SPR (Biacore), antibody captured on antigen-peptide chip, FcγR as analyte; relative binding amount. As to the method:
(§1) The heterodimerized antibodies He Abs in which one of the H chains was introduced with an alteration were assayed for their binding activities to each activating FcγR and inhibitory FcγR according to the method described in Example 4. […] The activating FcγRs in FIGS. 26, 27, 28, and 29 are FcγRIa, FcγRIIa (R), FcγRIIa (H), and FcγRIIIa, respectively.
(§2) Analysis of interaction between objective antibody and the FcγR was carried out using Biacore T100 (GE Healthcare). HBS-EP+ (GE Healthcare) was used as the running buffer, and the measurement temperature was set to 25° C. Chips produced by immobilizing the antigen peptide by the amine coupling method to a Series S Sencor Chip CM5 (GE Healthcare), or alternatively, chips produced by allowing preliminarily biotinylated antigen peptides to interact with and immobilize onto a Series S Sensor Chip SA (certified) (GE Healthcare) were used. Antibodies of interest were captured onto an antigen peptide-immobilized chip, and allowed to interact to each FcγR diluted with running buffer. To regenerate and repeatedly use the chip, the antibodies captured on the chip were washed off by reacting 10 mM glycine-HCl, pH 1.5.
A general note: Surface plasmon resonance follows binding to a sensor surface in real time, without labels.

Experiment [2] concerns the target T2, FcγRIIa R (extracellular domain, C-terminal His tag) (human, UniProt P12318 34-217).
T2 construct: extracellular domain; also called FcgRIIa R type; 2aR; not shown: His tag attached to the C terminus
T2 sequence (looked up): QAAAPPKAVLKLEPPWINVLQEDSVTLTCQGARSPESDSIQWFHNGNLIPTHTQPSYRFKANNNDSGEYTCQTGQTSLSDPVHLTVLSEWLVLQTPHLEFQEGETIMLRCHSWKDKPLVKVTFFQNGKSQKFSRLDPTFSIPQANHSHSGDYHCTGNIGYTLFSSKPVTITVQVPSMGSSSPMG
Described as above. As to the method: as §1, §2

The target of experiment [3] is T2, FcγRIIa R (extracellular domain, …). The experiment in a line: ratio of He/Con_2aR to He/Con_2b (FcγRIIb); SPR relative binding. The protocol:
as §1, §2

The values that follow come from US20180155451A1 (published 2018).

B1: GpH7-A5/GpH7-B3 variant D265_01G/GpL16-k0 (antibody, human IgG1, kappa)
heavy 1: not shown
heavy 2: not shown
light: DIVMTQSPLSLPVTPGEPASISCQASESLVHSNRNTYLHWYLQKPGQSPQLLIYKVSNRFSGVPDRFSGSGSGTDFTLKISRVEAEDVGVYYCSQNTHVPPTFGQGTKVEIERTVAAPSVFIFPPSDEQLKSGTASVVCLLNNFYPREAKVQWKVDNALQSGNSQESVTEQDSKDSTYSLSSTLTLSKADYEKHKVYACEVTHQGLSSPVTKSFNRGEC
notes: Heterodimerized anti-glypican-3 IgG1; alteration in only one H chain (GpH7-B3 side); also called He Ab
For B1, the He/Con_2b in experiment [1] is 16.1 % of control (GpH7-A5/GpH7-B3/GpL16-k0 = 100). The He/Con_2aR in experiment [2] is 24.1 % of control (GpH7-A5/GpH7-B3/GpL16-k0 = 100). Moreover, the “He_2aR/2b (IIaR/IIb)” value in experiment [3] worked out at 1.49.

B2: GpH7-A5/GpH7-B3 variant P238_14T/GpL16-k0 (antibody, human IgG1, kappa)
heavy 1: not shown
heavy 2: not shown
light: DIVMTQSPLSLPVTPGEPASISCQASESLVHSNRNTYLHWYLQKPGQSPQLLIYKVSNRFSGVPDRFSGSGSGTDFTLKISRVEAEDVGVYYCSQNTHVPPTFGQGTKVEIERTVAAPSVFIFPPSDEQLKSGTASVVCLLNNFYPREAKVQWKVDNALQSGNSQESVTEQDSKDSTYSLSSTLTLSKADYEKHKVYACEVTHQGLSSPVTKSFNRGEC
notes: as for B1
In the case of B2, the He/Con_2b in experiment [1] was 50.7 % of control (GpH7-A5/GpH7-B3/GpL16-k0 = 100). The He/Con_2aR in experiment [2] was 73.1 % of control (GpH7-A5/GpH7-B3/GpL16-k0 = 100). In addition, in experiment [3], the “He_2aR/2b (IIaR/IIb)” value came out at 1.44.

B3: GpH7-A5/GpH7-B3 variant D265_07I/GpL16-k0 (antibody, human IgG1, kappa)
heavy 1: not shown
heavy 2: not shown
light: DIVMTQSPLSLPVTPGEPASISCQASESLVHSNRNTYLHWYLQKPGQSPQLLIYKVSNRFSGVPDRFSGSGSGTDFTLKISRVEAEDVGVYYCSQNTHVPPTFGQGTKVEIERTVAAPSVFIFPPSDEQLKSGTASVVCLLNNFYPREAKVQWKVDNALQSGNSQESVTEQDSKDSTYSLSSTLTLSKADYEKHKVYACEVTHQGLSSPVTKSFNRGEC
notes: as for B1
In the case of B3, in experiment [1], the He/Con_2b was 1.3 % of control (GpH7-A5/GpH7-B3/GpL16-k0 = 100). In addition, the He/Con_2aR in experiment [2] was 3.4 % of control (GpH7-A5/GpH7-B3/GpL16-k0 = 100). Further, the “He_2aR/2b (IIaR/IIb)” value in experiment [3] is 2.57.

B4: GpH7-A5/GpH7-B3 variant P238_13S/GpL16-k0 (antibody, human IgG1, kappa)
heavy 1: not shown
heavy 2: not shown
light: DIVMTQSPLSLPVTPGEPASISCQASESLVHSNRNTYLHWYLQKPGQSPQLLIYKVSNRFSGVPDRFSGSGSGTDFTLKISRVEAEDVGVYYCSQNTHVPPTFGQGTKVEIERTVAAPSVFIFPPSDEQLKSGTASVVCLLNNFYPREAKVQWKVDNALQSGNSQESVTEQDSKDSTYSLSSTLTLSKADYEKHKVYACEVTHQGLSSPVTKSFNRGEC
notes: as for B1
In the case of B4, the He/Con_2b in experiment [1] was 70.4 % of control (GpH7-A5/GpH7-B3/GpL16-k0 = 100). Moreover, in experiment [2], the He/Con_2aR was 88.9 % of control (GpH7-A5/GpH7-B3/GpL16-k0 = 100). Besides, the “He_2aR/2b (IIaR/IIb)” value in experiment [3] worked out at 1.26.

B5: GpH7-A5/GpH7-B3 variant D265_04F/GpL16-k0 (antibody, human IgG1, kappa)
heavy 1: not shown
heavy 2: not shown
light: DIVMTQSPLSLPVTPGEPASISCQASESLVHSNRNTYLHWYLQKPGQSPQLLIYKVSNRFSGVPDRFSGSGSGTDFTLKISRVEAEDVGVYYCSQNTHVPPTFGQGTKVEIERTVAAPSVFIFPPSDEQLKSGTASVVCLLNNFYPREAKVQWKVDNALQSGNSQESVTEQDSKDSTYSLSSTLTLSKADYEKHKVYACEVTHQGLSSPVTKSFNRGEC
notes: as for B1
On to B5, for which the He/Con_2b in experiment [1] was 3.2 % of control (GpH7-A5/GpH7-B3/GpL16-k0 = 100). Also, the He/Con_2aR in experiment [2] is 5.6 % of control (GpH7-A5/GpH7-B3/GpL16-k0 = 100). The “He_2aR/2b (IIaR/IIb)” value in experiment [3] came out at 1.79.

B6: GpH7-A5/GpH7-B3 variant P238_12R/GpL16-k0 (antibody, human IgG1, kappa)
heavy 1: not shown
heavy 2: not shown
light: DIVMTQSPLSLPVTPGEPASISCQASESLVHSNRNTYLHWYLQKPGQSPQLLIYKVSNRFSGVPDRFSGSGSGTDFTLKISRVEAEDVGVYYCSQNTHVPPTFGQGTKVEIERTVAAPSVFIFPPSDEQLKSGTASVVCLLNNFYPREAKVQWKVDNALQSGNSQESVTEQDSKDSTYSLSSTLTLSKADYEKHKVYACEVTHQGLSSPVTKSFNRGEC
notes: as for B1
As for B6, in experiment [1], the He/Con_2b was 51.4 % of control (GpH7-A5/GpH7-B3/GpL16-k0 = 100). In experiment [2], the He/Con_2aR was 80.5 % of control (GpH7-A5/GpH7-B3/GpL16-k0 = 100). Also, in experiment [3], the “He_2aR/2b (IIaR/IIb)” value was determined as 1.57.

B7: GpH7-A5/GpH7-B3 variant P238_18N/GpL16-k0 (antibody, human IgG1, kappa)
heavy 1: not shown
heavy 2: not shown
light: DIVMTQSPLSLPVTPGEPASISCQASESLVHSNRNTYLHWYLQKPGQSPQLLIYKVSNRFSGVPDRFSGSGSGTDFTLKISRVEAEDVGVYYCSQNTHVPPTFGQGTKVEIERTVAAPSVFIFPPSDEQLKSGTASVVCLLNNFYPREAKVQWKVDNALQSGNSQESVTEQDSKDSTYSLSSTLTLSKADYEKHKVYACEVTHQGLSSPVTKSFNRGEC
notes: as for B1
B7: the He/Con_2b in experiment [1] is 73.2 % of control (GpH7-A5/GpH7-B3/GpL16-k0 = 100). The He/Con_2aR in experiment [2] is 91.9 % of control (GpH7-A5/GpH7-B3/GpL16-k0 = 100). Further, the “He_2aR/2b (IIaR/IIb)” value in experiment [3] turned out to be 1.26.
